# Results published in publication PMC11909135, “Raptin, a sleep-induced hypothalamic hormone, suppresses appetite and obesity” (Cell Research, 2025).
# B1: recombinant mouse Raptin protein with a His-tag (ligand)
# chain: AEELHYPQGEHRADYDREALLGVQEDVDEYVKLGHEEQQRRLQSIIKKIDSDSDGFLTENELSQWIQMSFKHYAMQEAKQQFVEYDKNSDGAVTWDEYNIQMYDRVIDFDENTALDDTEEGSFRQLHLKDKKRFEKANQDSGPGLSLEEFIAFEHPEEVDYMTEFVIQEALEEHDKNGDGFVSLEEFLGDYRRDPTANEDPEWILVEKDRFVNDYDKDNDGR
# Target: glutamate metabotropic receptor 3 (GRM3), endogenous (mouse (endogenous in GT1-7 neurons and …, UniProt Q9QYS2 23-879))
# Assay: cell-based or functional assay
# glutamate metabotropic receptor 3 (GRM3), endogenous (mouse, sequence (Q9QYS2 23-879): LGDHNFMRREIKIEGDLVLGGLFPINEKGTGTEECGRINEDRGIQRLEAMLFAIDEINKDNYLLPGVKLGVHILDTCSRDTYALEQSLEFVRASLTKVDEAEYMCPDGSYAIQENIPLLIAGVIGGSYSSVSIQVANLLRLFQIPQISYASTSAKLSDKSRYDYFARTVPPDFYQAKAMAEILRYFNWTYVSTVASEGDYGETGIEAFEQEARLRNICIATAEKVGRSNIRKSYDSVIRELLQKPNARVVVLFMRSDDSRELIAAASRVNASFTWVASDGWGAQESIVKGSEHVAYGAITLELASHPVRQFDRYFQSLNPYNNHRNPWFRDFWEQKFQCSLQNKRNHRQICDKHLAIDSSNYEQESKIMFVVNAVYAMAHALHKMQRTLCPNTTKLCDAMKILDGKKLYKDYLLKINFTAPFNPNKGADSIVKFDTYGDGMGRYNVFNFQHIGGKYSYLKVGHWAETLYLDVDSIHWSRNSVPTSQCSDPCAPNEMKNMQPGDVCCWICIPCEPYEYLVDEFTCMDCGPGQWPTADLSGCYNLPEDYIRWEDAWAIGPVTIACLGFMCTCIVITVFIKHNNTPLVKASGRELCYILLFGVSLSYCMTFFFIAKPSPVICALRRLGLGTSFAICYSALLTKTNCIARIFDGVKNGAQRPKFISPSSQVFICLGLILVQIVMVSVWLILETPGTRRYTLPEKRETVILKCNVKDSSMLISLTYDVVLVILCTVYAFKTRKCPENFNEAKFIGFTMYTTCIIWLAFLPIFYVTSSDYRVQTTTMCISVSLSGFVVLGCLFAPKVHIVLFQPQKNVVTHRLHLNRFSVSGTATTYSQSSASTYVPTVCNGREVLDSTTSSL
binder,measurement,value
B1,p-AKT accumulation in GT1-7 cells expressing GRM3 (EC50 of Raptin),0.31 ng/mL
